Assay results from patent US20220323495A1.

Key:
[1] = biological target: recombinant human EGFRvIII protein, denatured (human) (UniProt P00533); assay: ELISA on coated denatured recombinant antigen; Exp 2, mAb 1 µg/ml
[2] = biological target: recombinant human EGFRvIII protein, native (human) (UniProt P00533); assay: ELISA on coated native recombinant antigen; Exp 2, mAb 1 µg/ml
[3] = biological target: recombinant human wild-type EGFR protein, native (human) (UniProt P00533); assay: as above
[4] = biological target: recombinant human EGFRvIII protein, native (human) (UniProt P00533); assay: ELISA on coated native recombinant antigen; Exp 1
[5] = biological target: recombinant human wild-type EGFR protein, native (human) (UniProt P00533); assay: ELISA on coated native recombinant antigen; Exp 1
[6] = biological target: recombinant human wild-type EGFR protein, denatured (human) (UniProt P00533); assay: ELISA on coated denatured recombinant antigen; Exp 1
[7] = biological target: recombinant human EGFRvIII protein, denatured (human) (UniProt P00533); assay: as above
[8] = biological target: recombinant human wild-type EGFR protein, denatured (human) (UniProt P00533); assay: ELISA on coated denatured recombinant antigen; Exp 2, mAb 1 µg/ml

Row | ELISA absorbance (405 nm) [1] | ELISA absorbance (405 nm) [2] | ELISA absorbance (405 nm) [3] | ELISA absorbance (405 nm) [4] | ELISA absorbance (405 nm) [5] | ELISA absorbance (405 nm) [6] | ELISA absorbance (405 nm) [7] | ELISA absorbance (405 nm) [8] | Substance
1 | 0.004 A405 | 1.5 A405 | 1.32 A405 | 1.08 A405 | 1.2 A405 | -0.01 A405 | 0.001 A405 |  | 225 monoclonal antibody (ATCC HB-8508)
2 |  | -0.001 A405 |  |  |  |  |  | 0 A405 | Neg ctrl mouse mAb (antibody)
